In the test the target is doubly-mutant HR1 peptides. The test is described as follows: native PAGE complex assembly assay, densitometry of fluorescence scans.

* marks the point of attachment. FITC = O=C1OC2(c3ccc(O)cc3Oc3cc(O)ccc32)c2ccc(NC(=S)*)cc21; βAla = NCCC(=O)O Some results are limits rather than exact numbers.

B1: FITC-SAH-gp41(626-662)(A, F) (peptide)
peptide: {FITC-βAla}-LTWAEWDAEINNYTSLIHSLIEESQNQAEKNAQELLE-NH2
modifications: staple (positions not given here); also: two hydrocarbon staples from S5 residues, positions not given here
Turning to B1, the fold enhancement in binding activity compared to FITC-T649v was less than 2 fold.

(Values after patent publication US20120141527A1.)
